± gives the half width of the 95% confidence interval.
Experiments:
[1] = folding stability dG unfold (combined trypsin and chymotrypsin); higher = more stable
Outline: (§1)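 Designed mini-proteins (under 80 residues, no cysteine) in a PA-tagged cDNA display construct were digested with trypsin and chymotrypsin. Each protease was used at 11 concentrations (threefold dilutions) plus a no-protease condition, followed by sequencing. K50 was inferred by Bayesian fitting of sequencing counts, and unfolding free energy was derived against a sequence-predicted unfolded-state K50 and a shared folded-state K50, per protease or combined. Only designs with AlphaFold2 dimer inter-PAE above 15 were kept.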

[2] = folding stability dG unfold from trypsin proteolysis; higher = more stable
Experimental: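 Folding stability of de novo designed mini-proteins (<80 aa, no Cys; designed by TrROS, TrMRF, ProteinMPNN and the joint model) was measured by cDNA display proteolysis with trypsin and chymotrypsin. Each protease was used at 11 concentrations in a threefold dilution series plus a no-protease condition. K50 was inferred by Bayesian fitting of sequencing counts, and dG unfold was derived against a sequence-predicted unfolded-state K50 (Tsuboyama et al. method). Sequences shown include variable-length N-terminal GS-type padding (SAGGSAGG...) inside a display construct carrying a PA tag. Rows were kept only if the AF2 dimer inter-PAE was >15, to exclude likely homo-oligomers.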

[3] = folding stability dG unfold from chymotrypsin proteolysis; higher = more stable
Outline: as §1

Sequence	folding stability dG unfold [1]	folding stability dG unfold [2]	folding stability dG unfold [3]
SAGGSASYSSLKITIIDTGTTTTVPPGATTTPTVVKLPDNKTAIITTTTPPDGTTATTVELFDNDKSAGGSA [r15_559_JUSTAS]	< -1 kcal/mol	-0.717 ± 0.12 kcal/mol	
SAGGSAGGSAMLTKTIKLPNGKPASVTITTLSEGSSPGSSVDPKLVINADPNIPKEIVDKLLSAGGSAGGSA [r18_272_JUSTAS]	-0.685 ± 0.13 kcal/mol	-0.624 ± 0.077 kcal/mol	
SAGKITIEYDKETNTVTVTIEIEIEVINEDGSIEKKKITITVKVKVDKKTNKVELLSLDEILKKLEELLSAG [r5_239_TrROS_Hall]	3.81 ± 0.36 kcal/mol	2.92 ± 0.2 kcal/mol	
SAGGMVVRTPDGSTVEITVTDPASGSPYRSTDPGGGVEAAIAAINASPAYPNATVSITRYDAGTASPASAGG [r13_914_JUSTAS]	-0.485 ± 0.16 kcal/mol	-0.286 ± 0.1 kcal/mol	
SAGGSAGGSMVLIEIYFKGPEKPIVFPAEGPEEVVEKLLELVEENPELGLDNIAEIRAYPGEESAGGSAGGS [r12_852_TrMRF]	0.0303 ± 0.28 kcal/mol	0.425 ± 0.074 kcal/mol	
SAGGSAGGSAGGVKPGEVLPDGRLLVTWDEETNELTVYFEDTETITLKAPPPVVVSPEDLSAGGSAGGSAGG [r7_522_TrROS_Hall]	-0.614 ± 0.46 kcal/mol	0.0426 ± 0.11 kcal/mol	
SAGGSAGGSAGGMYIATFKPPDGSEITVKLNPGEKVTIKLKDGTPAGVVSKKAVSPELLSAGGSAGGSAGGS [r10_422_JUSTAS]	-0.361 ± 0.68 kcal/mol	-0.245 ± 0.17 kcal/mol	
SAGGSAGGSAGGSSRTIKLDGYKITVHPNSVHIYPPKNGKPVTVPMDNPEVQDLIKELISAGGSAGGSAGGS [r4_353_TrROS]	< -1 kcal/mol	-1.19 ± 0.31 kcal/mol	
SKVLELLKELAKKLGATITEVKVEKLEDGTVKVTATITVTYLDKNGKPVKTETLTLTITVKNGKITEIKLSA [r9_519_TrROS_Hall]	> 6 kcal/mol	4.66 ± 0.55 kcal/mol	
SAGGSAGGSAGGLEVSIPGWTVTKTEPLPDDSVLSTATKKNGPKFLISISPDEVTISPESAGGSAGGSAGGS [r10_312_JUSTAS]	< -1 kcal/mol	-0.394 ± 0.16 kcal/mol	
SAGGNWRPVERPIPIEPGMPPEEFIDEIADELPPGWRIDKPEPHPDNNYFKITVYDPNDGNQVEILFSAGGS [r16_250_TrROS]	0.122 ± 0.25 kcal/mol	0.363 ± 0.15 kcal/mol	
SAGGSAGGSGMVSSVVKHTVELNVPENRPNAEELAAELRAAHPGVTVVEITETPNKAVITVEESAGGSAGGS [r12_454_JUSTAS]	< -1 kcal/mol	0.296 ± 0.062 kcal/mol	
SAGPKIVEVKPSNGKLEITVEIPVPGAPVLFLNPAKNATIESDPNGRITITLDSEGEYEIIIGNPVFDSAGG [r19_227_TrMRF]	0.0526 ± 0.087 kcal/mol	0.394 ± 0.026 kcal/mol	
SKITITIEEEEVEVNGKKYKVFKVTATVTVTEYKFKDGKLVEKKTKTKTITVRIVLDKNGKIVKIEPLPDSA [r9_829_TrROS_Hall]	> 6 kcal/mol	4.33 ± 0.32 kcal/mol	
SGNSLNEKGESYPITVKAPDPNVTPEQVKAALEKAGAKVLEIKRPPKGSTLTVSVEITDPEKVKEAFEKLSA [r9_1154_JUSTAS]	< -1 kcal/mol	-1.05 ± 0.44 kcal/mol	
SGSPSTPVTITVEFPPRLTTVLYREPTRPPLGYLLVPEPSRTETITVPVSEVAAVKAELEPRGMTVTVTASA [r9_167_JUSTAS]	< -1 kcal/mol	-0.69 ± 0.33 kcal/mol	
SAGGSAGGSAGMPLPIKTLTEVSTVEGVGITLTALDNGLVIVEKSDGKVTVIPLSAYEAQSAGGSAGGSAGG [r11_254_JUSTAS]	-0.0335 ± 0.073 kcal/mol	0.643 ± 0.04 kcal/mol	
SAGGSAGGSAGGSKKIIIPVGNKPIEITLHPDEIPEIHPETNYISIYLPKTNDVLILPVGSAGGSAGGSAGG [r7_7_TrMRF]	< -1 kcal/mol	-0.0749 ± 0.051 kcal/mol	
SAGGSAGGSAGGSSSLPLSTGTIPLEELEAQGGPIVEVTVLLFSGSSNRTIVMDLPPELVSAGGSAGGSAGG [r7_116_JUSTAS]	-0.596 ± 0.31 kcal/mol	-0.372 ± 0.29 kcal/mol	
SAGGSWIPVEEIAENFPNVEVNTHPNGNIMVRFTHKRKKPNGGKKKHNMTVQLDPEDGRLQSIHPYSAGGSA [r2_104_TrROS]		-0.0297 ± 0.48 kcal/mol	
SAGTVFVAHSDDRPPVAAPETGTVTLPAPDGARVTLRRLPDGTAVVTPDGGESRTLGPGARVEVRLLPASAG [r5_869_TrMRF]	< -1 kcal/mol		-0.156 ± 0.37 kcal/mol
SAGGSAGGSAGMRLLVEKPEGPVPTVTEVEVPLPEGDKARLEEVKEELKKKGYKKVIFLDSAGGSAGGSAGG [r11_196_JUSTAS]	< -1 kcal/mol		-0.417 ± 0.37 kcal/mol
SAGGSARVVTAVARHPNSTEATLTVTDSGAAGGTSEITFASPEDLLAAIRNLPASVASVSVRPLLPSAGGSA [r15_589_TrMRF]	0.422 ± 0.092 kcal/mol		0.806 ± 0.028 kcal/mol
SAGGSAGGSAGGSSVVIVADSAEEAKAALKELGIKDAKVVPLKPVKVFTDEQLKELKKKSAGGSAGGSAGGS [r4_101_TrROS_Hall]	0.276 ± 0.28 kcal/mol		0.943 ± 0.039 kcal/mol

Sequence	folding stability dG unfold [1]	folding stability dG unfold [2]	folding stability dG unfold [3]
SAGGSAGGSAPLVLVAPGDAPVTVYPDPETGTYVAVFPDGSVLVAPVVGDVVPVVLLPPGLASAGGSAGGSA [r18_405_TrMRF]	-0.31 ± 0.23 kcal/mol		0.677 ± 0.19 kcal/mol
SAGMKVVRTRTVWADDSDNPTPLAPEVELVRDAPPTFPLPVTVTTPDGRPYTGTLIALDPDREGLVLGGSAG [r5_735_TrMRF]	-0.29 ± 0.19 kcal/mol		0.254 ± 0.17 kcal/mol
SAGGSAGGSAGGAAEVLEALRAARGQPVVVLVKDPAGNEREVTVPGDTARFPGWTVVELLSAGGSAGGSAGG [r7_998_JUSTAS]	0.341 ± 0.17 kcal/mol		0.739 ± 0.11 kcal/mol
SAGGSAGGSAGGSGPPHMRTTNEVTITLDGTVVSGSTPLPESLPPGVETYTTETYLPPLSAGGSAGGSAGGS [r4_436_JUSTAS]	< -1 kcal/mol		-0.308 ± 0.13 kcal/mol
SAGGSAGGSAGGSDPSMSLETFVIPESTSTVTLTDPSGTLRTLTTGRDPLTLTEVLPPRSAGGSAGGSAGGS [r4_162_JUSTAS]	-0.078 ± 0.17 kcal/mol		0.459 ± 0.12 kcal/mol
SAGTITKLKTEYDPKGYRFIELLDPLPNDPSVPAEALAQEIKEKYGAEKAEIKPVPGTGAIRILLIKPESAG [r14_228_JUSTAS]	-0.67 ± 0.42 kcal/mol		-0.396 ± 0.48 kcal/mol
SAGGSAMKTSLSRSTSTDPSDPNVTYKTTTTFLPDNTVLTNTTTTTRVGSSDVTTTTTTTTPIPAASAGGSA [r15_553_JUSTAS]	0.135 ± 0.18 kcal/mol		0.409 ± 0.18 kcal/mol
SMKTYTFTDPNNGIKYTITIDPNKPLVNVTVTKPGGEPVETQTVSVAPGKINLSLNVDGKPISISISLPESA [r9_385_JUSTAS]	5.37 ± 0.2 kcal/mol		5.29 ± 0.15 kcal/mol
SAGGEPRLGRVLLDIDIAVDPERAEREEDREEALERALEIAERAEARLRELDPDVPVVVNIRLLDVGSAGGS [r8_183_TrMRF]	0.31 ± 0.17 kcal/mol		0.576 ± 0.031 kcal/mol
SAGGSAGGSAGGLPINARPPNIAEVIRALRESGRYRVVEIRPFGDGAVIRVEKDGVPLESAGGSAGGSAGGS [r10_695_TrMRF]	0.0741 ± 0.34 kcal/mol		0.769 ± 0.19 kcal/mol
SAGGPKVVKGKKVEKVELEVGKLPDGVELVKVKVRSKEVDKEFTFTFEPGQDLGEFGKATGFDIGVESAGGS [r16_676_TrMRF]	0.14 ± 0.17 kcal/mol		0.552 ± 0.16 kcal/mol
SAGGSAGGSAGGGPMLRYTLTFTLPDSTVTKEFSSEEEVEEAKEQLPEEYPVDPNVTVSPSAGGSAGGSAGG [r7_18_JUSTAS]	-0.22 ± 0.32 kcal/mol		-0.113 ± 0.43 kcal/mol
VSPLDLEGPGGLPPSELRRVSVLREETDPSVGEKRLSPVGTLFVPKDTSPEEVEAIIAARPDITRVEVRLLS [r1_132_JUSTAS]	0.0944 ± 0.082 kcal/mol		0.502 ± 0.067 kcal/mol
SAGGSAGMKNVVKPVAPGTSMTLKVTKPDGTPRTLTFPPNYTATVKTLPEGGKDEIISLEPVPPELSAGGSA [r15_82_JUSTAS]	< -1 kcal/mol		-0.82 ± 0.53 kcal/mol
SAGGGPMPKPVEEVVEEEEDGLRVTTRITYLPTSSTTVVRTTRTVFDPRNGRPLETEELTETVPPGSSAGGS [r16_709_JUSTAS]	-0.181 ± 0.22 kcal/mol		-0.0368 ± 0.23 kcal/mol
SAGGDARVARARIRLTRPFPDEDGVVRWEPVVPPGDPVEVGLVLEDDTLVANAVFDGRPVLATVRLESAGGS [r16_500_TrMRF]	< -1 kcal/mol		-0.407 ± 0.27 kcal/mol
SKPGDKLEEVTIKIYNPGNGRPREITIEKHEDGWRAQVMNPPGQTKEIPPNDTLEDLLNLPPNYYIEIIPSA [r9_781_TrROS]		-0.271 ± 0.2 kcal/mol	
SAGMITLEKTVPLSEATPEKAKEIAEELLEKLKKEGLPEGLEKTSIEITELPGDELIVKVPTKIVSKESAGG [r19_87_JUSTAS]	< -1 kcal/mol		-0.556 ± 0.14 kcal/mol
SAGGSAGGSAGGSDMEIVPRRIPDGFRLMVARNPEGTYTVQVWNPNGKPKWETIPPDEISAGGSAGGSAGGS [r4_120_TrROS]	-0.485 ± 0.21 kcal/mol		-0.185 ± 0.22 kcal/mol
SAGGSAGGSAGMKYIEEAKAKAKPDKKLKITIPPSLPVEEVRKELLEEVPIDDVEFIKNLSAGGSAGGSAGG [r11_524_JUSTAS]	< -1 kcal/mol		-0.491 ± 0.26 kcal/mol
SAGGSAGGSAMKITINVSPDEPGVTIEEAKKRLAPHPVEKVTQTPLPSNSLVVTVDVSPEASAGGSAGGSAG [r3_335_JUSTAS]	< -1 kcal/mol		-0.457 ± 0.2 kcal/mol
MEEVTIEIEVKGLSEEEIKELAEKLAEELREAGYEVEITKVEVLPDGSVKVTIKVRKGMSEEELKKLLEKLS [r1_485_TrROS_Hall]		3.65 ± 0.36 kcal/mol	
SAGGDPEEQNKMMERMEKMKPIEPEPVRIPNGIEIEYWPAYGFVEIETWYRDPDGEPKPIGEGWVPVSAGGS [r16_243_TrROS]	-0.147 ± 0.12 kcal/mol		0.286 ± 0.094 kcal/mol
